Experimental findings from publication PMC10435448, “A RAD51–ADP double filament structure unveils the mechanism of filament dynamics in homologous recombination” are described below.

The target in the data set is hRAD51 wild-type (Homo sapiens, UniProt Q06609 1-339). The experiment in a line: cryo-EM structure (3.1 A); 1 mM ADP, 5 mM CaCl2, 2.5 mM MgCl2; ssDNA density weak and diffuse; EMSA: 35 mM Tris-HCl pH 7.5, 1 mM DTT, 10 mM MgCl2, 100 ng/ul BSA, 50 mM KCl, 2 mM ADP, 37 C 10 min, 2% agarose TAE at 4 C; cryo-EM: 35 mM Tris-HCl pH 7.5, 108. As to conditions: protein: recombinant; tags: none stated (pET11, untagged purification); chain copies: 10; single strand.
hRAD51 wild-type, sequence (Q06609 whole entry): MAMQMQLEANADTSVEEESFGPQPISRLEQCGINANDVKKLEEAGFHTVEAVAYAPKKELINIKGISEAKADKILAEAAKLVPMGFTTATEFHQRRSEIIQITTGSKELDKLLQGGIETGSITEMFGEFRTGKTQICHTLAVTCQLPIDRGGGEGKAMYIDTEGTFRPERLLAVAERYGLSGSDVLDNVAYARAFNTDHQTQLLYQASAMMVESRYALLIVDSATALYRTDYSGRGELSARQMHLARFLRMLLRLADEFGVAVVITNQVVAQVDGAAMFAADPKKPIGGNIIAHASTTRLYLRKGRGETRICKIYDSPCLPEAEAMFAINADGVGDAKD

B1: Oligo 1 (80 nt ssDNA), unlabeled (ssDNA)
DNA: TTATGTTCATTTTTTATATCCTTTACTTTATTTTCTCTGTTTATTCATTTACTTATTTTGTATTATCCTTATCTTATTTA
As for B1, the binding result was “binds”.
